Source: the supplement of paper PMC7877785
± gives the uncertainty stated by the source.

Experiment: self-splicing fitness, log relative to wild type (ln ratio); higher = more splicing; Tetrahymena group I intron in knt gene, E. coli kanamycin selection, DiMSum; sequences stand for … in CUCUCU…GGAGGGAAAAGUUAUCAGGCAUGCACCUGGUAGCUAGUCUUUAAACCAAUAGAUUGCAUCGGUUUAAAAGGCAAGACCGUCAAAUUGCGGGAAAGGGGUCAACAGCCGUUCAGUACCAAGUCUCAGGGGAAACUUUGAGAUGGCCUUGCAAAGGGUAUGGUAAUAAGCUGACGGACAUGGUCCUAACCACGCAGCCAAGUCCUAAGUCAACAGAUCUUCUGUUGAUAUGGAUGCAGUUCACAGACUAAAUGUCGGUCGGGGAAGAUGUAUUCUUCUCAUAAGAUAUAGUCGGACCUCUCCUUAAUGGGAGCUAGCGGAUGAAGUGAUGCAACACUGGAGCCGCUGGGAACUAAUUUGUAUGCGAAAGUAUAUUGAUUAGUUUUGGAGUACUCGUGGUCG
Outline: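 Library with all eight P1ex-region intron nucleotides randomised, intron inside the knt kanamycin-resistance gene on pET-22b(+), in E. coli BL21(DE3). Cells grew overnight at 37°C or 30°C on LB agar with or without 25 μg/mL kanamycin (plus 100 μg/mL carbenicillin, 50 μM IPTG, 0.2% rhamnose), in six replicate transformations. Pooled colonies were amplicon-sequenced on Illumina HiSeq 2500. DiMSum fitness is the error-weighted combination of wild-type-normalised replicate fold changes, kanamycin versus none.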

| Sequence | self-splicing fitness (ln) (30 °C) | self-splicing fitness (ln) (37 °C) |
| --- | --- | --- |
| UCGUAGCAAUAUUACGACUA | -1.41 ± 0.19 | -0.0995 ± 0.15 |
| UCGUAGCAAUAUUACGAUCU | -1.92 ± 0.3 | -1.67 ± 0.37 |
| UCGUAGCAAUAUUACGAUGA | -0.769 ± 0.12 | -0.601 ± 0.13 |
| UCGUAGCAAUAUUACGCAAU | -3.7 ± 0.47 | -1.99 ± 0.31 |
| UCGUAGCAAUAUUACGCACG | -1.8 ± 0.23 | -0.584 ± 0.2 |
| UCGUAGCAAUAUUACGCUCA | -0.522 ± 0.13 | -0.556 ± 0.16 |
| UCGUAGCAAUAUUACGCUUA | – | -1.1 ± 0.47 |
| UCGUAGCAAUAUUACGCUUC | -3.12 ± 0.48 | – |
| UCGUAGCAAUAUUACGGGCA | -0.422 ± 0.14 | -0.0787 ± 0.13 |
| UCGUAGCAAUAUUACGGGGA | -2.6 ± 0.28 | -1.23 ± 0.23 |
| UCGUAGCAAUAUUACGGGGG | -3.07 ± 0.44 | -2 ± 0.47 |
| UCGUAGCAAUAUUACGUACG | -3.07 ± 0.24 | -1.96 ± 0.19 |
| UCGUAGCAAUAUUACGUAGC | -2.27 ± 0.43 | – |
| UCGUAGCAAUAUUACGUAUG | -2.04 ± 0.14 | -1.93 ± 0.2 |
| UCGUAGCAAUAUUACGUCCG | -0.957 ± 0.074 | -0.517 ± 0.091 |
| UCGUAGCAAUAUUACGUCGC | – | -1.37 ± 0.41 |
| UCGUAGCAAUAUUACGUCUU | -2.7 ± 0.15 | -0.44 ± 0.14 |
| UCGUAGCAAUAUUACGUGAC | -1.99 ± 0.26 | – |
| UCGUAGCAAUAUUACGUUAG | -3.83 ± 0.3 | -2.1 ± 0.46 |
| UCUAAGCAAUAUUACGACCC | – | -0.661 ± 0.44 |
| UCUAAGCAAUAUUACGAGGA | -3.5 ± 0.4 | -2.72 ± 0.44 |
| UCUAAGCAAUAUUACGAGGU | -2.8 ± 0.27 | -0.819 ± 0.17 |
| UCUAAGCAAUAUUACGAUUC | -3.14 ± 0.16 | -2.83 ± 0.23 |

| Sequence | self-splicing fitness (ln) (30 °C) | self-splicing fitness (ln) (37 °C) |
| --- | --- | --- |
| UCUAAGCAAUAUUACGCACG | -1.11 ± 0.19 | -1.8 ± 0.23 |
| UCUAAGCAAUAUUACGCCGG | -1.15 ± 0.13 | -0.186 ± 0.15 |
| UCUAAGCAAUAUUACGCCUA | – | -1.36 ± 0.26 |
| UCUAAGCAAUAUUACGCGAC | – | -2.84 ± 0.36 |
| UCUAAGCAAUAUUACGCGUA | -3.11 ± 0.2 | -2.27 ± 0.23 |
| UCUAAGCAAUAUUACGCUAU | -3.62 ± 0.31 | -3.37 ± 0.28 |
| UCUAAGCAAUAUUACGGAUG | -2.9 ± 0.26 | -1.99 ± 0.29 |
| UCUAAGCAAUAUUACGGAUU | – | -2.31 ± 0.23 |
| UCUAAGCAAUAUUACGGGAA | -2.29 ± 0.22 | -1.76 ± 0.14 |
| UCUAAGCAAUAUUACGGUCU | -3.41 ± 0.21 | -3.34 ± 0.31 |
| UCUAAGCAAUAUUACGGUGA | -0.587 ± 0.099 | -0.245 ± 0.1 |
| UCUAAGCAAUAUUACGUAGA | -1.2 ± 0.098 | -0.771 ± 0.15 |
| UCUAAGCAAUAUUACGUCAA | -2.57 ± 0.24 | -1.77 ± 0.27 |
| UCUAAGCAAUAUUACGUGUG | -1.02 ± 0.075 | -0.603 ± 0.1 |
| UCUAAGCAAUAUUACGUUCA | -2.37 ± 0.17 | -1.56 ± 0.15 |
| UCUCAGCAAUAUUACGACUA | -1.87 ± 0.12 | -1.37 ± 0.12 |
| UCUCAGCAAUAUUACGACUG | -2.79 ± 0.17 | -3.11 ± 0.28 |
| UCUCAGCAAUAUUACGAGAU | -4.62 ± 0.46 | -2.85 ± 0.35 |
| UCUCAGCAAUAUUACGAGCA | -0.507 ± 0.081 | 0.222 ± 0.12 |
| UCUCAGCAAUAUUACGAGCG | -0.123 ± 0.091 | -0.0856 ± 0.1 |
| UCUCAGCAAUAUUACGAGGU | – | -1.53 ± 0.25 |
| UCUCAGCAAUAUUACGCACC | -2.18 ± 0.42 | – |
| UCUCAGCAAUAUUACGCAGC | -3.54 ± 0.24 | -2.32 ± 0.21 |

| Sequence | self-splicing fitness (ln) (30 °C) | self-splicing fitness (ln) (37 °C) |
| --- | --- | --- |
| UCUCAGCAAUAUUACGCCGG | -2.33 ± 0.21 | – |
| UCUCAGCAAUAUUACGCCUG | – | -2.27 ± 0.47 |
| UCUCAGCAAUAUUACGCUAA | -3.89 ± 0.33 | -2.23 ± 0.25 |
| UCUCAGCAAUAUUACGCUGU | -2.3 ± 0.21 | -1.17 ± 0.31 |
| UCUCAGCAAUAUUACGGAGA | -3.23 ± 0.41 | -3.43 ± 0.39 |
| UCUCAGCAAUAUUACGGCCA | -2.65 ± 0.19 | -1.69 ± 0.21 |
| UCUCAGCAAUAUUACGGGAC | -2.31 ± 0.24 | -2.87 ± 0.38 |
| UCUCAGCAAUAUUACGGUAG | -2.3 ± 0.098 | -1.99 ± 0.15 |
| UCUCAGCAAUAUUACGGUCC | -3 ± 0.31 | – |
| UCUCAGCAAUAUUACGUAGC | -1.31 ± 0.17 | -1.16 ± 0.23 |
| UCUCAGCAAUAUUACGUCGA | -2.07 ± 0.11 | -0.925 ± 0.12 |
| UCUCAGCAAUAUUACGUGAG | -1.2 ± 0.054 | -0.483 ± 0.072 |
| UCUCAGCAAUAUUACGUUUA | -2.98 ± 0.18 | -1.08 ± 0.13 |
| UCUGAGCAAUAUUACGAAUA | – | -1.82 ± 0.48 |
| UCUGAGCAAUAUUACGACAG | -1.02 ± 0.12 | -1.04 ± 0.15 |
| UCUGAGCAAUAUUACGACCU | – | -2.62 ± 0.31 |
| UCUGAGCAAUAUUACGACUA | -2.49 ± 0.19 | -1.64 ± 0.17 |
| UCUGAGCAAUAUUACGACUU | -3.11 ± 0.33 | – |
| UCUGAGCAAUAUUACGAGCG | -1.93 ± 0.15 | -2.37 ± 0.39 |
| UCUGAGCAAUAUUACGAGGU | -3.18 ± 0.23 | – |
| UCUGAGCAAUAUUACGAUGC | – | -0.729 ± 0.36 |
